One molecule from patent US20180021429A1, “ANTICANCER AGENTS OR ANTIMETASTATIC AGENTS USING FSTL1 AND COMBINATION DRUG THEREOF” (PHARMA FOODS INTERNATIONAL CO., LTD., priority 2015, published 2018) can be followed below.

The subject of experiment [1] is Treg induction caused by FSTL1. The experiment is described as follows: Treg induction inhibitory activity using human peripheral blood cells (Example 25). It is filed as cell-based. The settings on record: human PBMCs; FSTL1 5 ng/ml; antibody 5 μg/mL; 3 days. Here is the method: Human peripheral blood cells (1×10^6 cells) were stimulated using FSTL1 (5 ng/ml), supplemented with the antibody (5 μg/mL), and cultured for 3 days. The percentage of a Foxp3^+CTLA4^+ cell fraction (Exp. 1) or a CD4^+Foxp3^+CTLA4^+ cell fraction (Exp. 2) in CD4^+ T cells was analyzed as Treg cells by flow cytometry. The flow cytometry conditions are as follows.
Blood was collected from a healthy person by the addition of a 1/10 amount of 4% sodium citrate, then layered on Ficoll (specific gravity: 1.090), and centrifuged (1500 rpm, 20 min, room temperature), and a cell fraction present in an intermediate layer was used as “PBMCs”. The antibody (5 μg/mL) was added to a system in which these PBMCs (1×10^4 cells) were cultured for 3 days under stimulation with FSTL1 (5 ng/ml) in a 24-well plate. PBMCs recovered from the culture system were incubated at 4° C. for 1 hour using an anti-CD4 antibody (BD Pharmingen/Becton, Dickinson and Company), an anti-CD25 antibody (BD Pharmingen/Becton, Dickinson and Company), and an anti-FoxP3 antibody (eBioscience). Then, the percentage of a Foxp3+CTLA4+ cell fraction (Exp. 1) or a CD4+Foxp3+CTLA4+ cell fraction (Exp. 2) in CD4+ T cells contained therein was analyzed as Treg cells using a flow cytometer FACScan (Becton, Dickinson and Company).

Experiment [2] relates to mouse breast cancer 4T1 cells. The experiment is described as follows: Mouse breast cancer 4T1 cell-transplanted model (Example 21). It is filed as in vivo. The settings on record: BALB/c mice; intraperitoneal 10 mg/kg on days 4 and 7; FIG. 109. Here is the method:
Procedures and methods of the experiment were basically performed according to Examples 17 to 20 under substantially the same conditions as in the bone metastasis model experiments of Examples 17 to 20. Drug efficacy evaluation was conducted using mouse tumor models other than Snail-positive tumor bone metastasis models. The drug efficacy of the anti-FSTL1 antibody was evaluated using cancer-bearing models of BALB/c mice different in strain from the C57BL/6 mice used in the preceding tests. Changes were made as follows. • Day 0: transplantation of tumor cells (5×10^5 cells subcutaneously & 5×10^5 cells intravenously) • Days 4 and 7: intraperitoneal administration of the antibody (10 mg/kg) • Day 14: drug efficacy evaluation (subcutaneous tumor growth)
The tumor volumes of the mice were measured 4, 7, 11, and 14 days after tumor implantation.

Experiment [3] relates to various human tumor cells. The experiment in a line: Proliferative capacity and invasive capacity of various human tumor cells (Example 26). The class given is cell-based. The following applies: antibody 5 μg/ml, particularly in a highly metastatic tumor cell line highly expressing Snail, FIG. 114A. Here is the method: Specifically, the influence of the anti-FSTL1 antibody on proliferative capacity and invasive capacity was studied using various human tumor cells, regardless of the presence or absence of the expression of Snail or FSTL1. Specifically, the anti-FSTL1 antibody (#6-55, 5 μg/ml) or a control antibody (aHema: mouse chimeric anti-hemagglutinin antibody, 5 μg/ml) was added to systems in which a pancreatic cancer cell line Panc1 (ATCC #CRL-1469), Panc1-snail+ which is a Panc1 cell line forced to express Snail, a pancreatic cancer cell line MIAPaCa (ATCC #CRL-1420), a bone metastatic breast cancer cell line MDA231 (ATCC #HTB-26), and a melanoma cell line Hs294T (ATCC IHTB-140) were each cultured at 1×10^5 cells. After culture for 3 days, the number of cells per culture system was counted to evaluate the proliferative capacity of the cells. The cells (5×10^4 cells) after the counting were further inoculated to Matrigel-coated transwell chamber (Corning Inc. #354480) and cultured for 4 hours. Then, the membranes were removed, and stained and fixed with Crystal Violet fixative. Then, the number of cells that permeated the membranes was counted under a microscope to evaluate the invasive capacity of the cells.

In experiment [4] the test system is Panc1, Panc1-snail+, MIAPaCa, MDA231, Hs294T. The experiment in a line: Proliferative capacity and invasive capacity of various human tumor cells. The settings on record: particularly in highly metastatic tumor cell line highly expressing Snail. It is filed as cell-based.
Text: (§1) Specifically, the influence of the anti-FSTL1 antibody on proliferative capacity and invasive capacity was studied using various human tumor cells, regardless of the presence or absence of the expression of Snail or FSTL1. […] After culture for 3 days, the number of cells per culture system was counted to evaluate the proliferative capacity of the cells. […] Then, the number of cells that permeated the membranes was counted under a microscope to evaluate the invasive capacity of the cells.
as §1

B1: #6-55: chicken-mouse chimeric anti-FSTL1 antibody clone; variable regions SEQ ID NO: 783 (light), 785 (heavy) (antibody, V domains shown)
VH: AVTLDESGGGLQTPGGALSLVCKGSGFTFTSVTMQWVRQAPGKGLEWVASVCSGSSTYYAPAVKGRATISRDNGQSTVRLQLSNLRPEDTGTYYCAKIAGRARWSCTSAAYNIDAWGHGTEVIVSS
VL: ASTQPSSVSAIPGETVKITCSGGGNNYGWYQQRSPGSAPVTVIYYNDNRPSNIPSRFSGSTSGSTSTLTITGVQADDEAIYYCGSWDSNTDSGIFGAGTTLTVL
modifications: mouse constant regions
On to B1, for which the “Treg induction by FSTL1 (Foxp3+CTLA4+ / CD4+Foxp3+CTLA4+ cell fraction)” value in experiment [1] is “significantly suppressed”. Besides, in experiment [2], the “growth of 4T1 subcutaneous tumor” value is given as “significantly suppressed”. The “proliferative capacity of tumor cells” value in experiment [3] (3 days) was “strongly suppressed”. In experiment [3] (Matrigel-coated transwell, 4 hours), the “invasive capacity of tumor cells” value is on record as “strongly suppressed”. Moreover, in experiment [4] (Matrigel-coated transwell chamber, 4 hours), the invasive capacity result is recorded as “strongly suppressed”. Moreover, in experiment [4] (antibody 5 μg/ml, 3 days), the proliferative capacity result is given as “strongly suppressed”.
